Self-cleavage data for 32 variants are collected here from the RNAGym collection of RNA variant scans (doi:10.7554/elife.80360).

First the molecules themselves.
B1: HDV Ribozyme (parent)
chain: GGCCGGCAUGGUCCCAGCCUCCUCGCUGGCGCCGGCUGGGCAACAUUCCGAGGGGACCGUCCCCUCGGUAAUGGCGAAUGGGACCCA

In this data set the parent is B1. Kind of data set: self-cleavage, relative activity (ratio to wild type); higher = more cleavage; co-transcriptional.
Turning to GGCCGGCAUGGUCCCAGCCUCCUCGCUGGGGCCGGCUGCGCAACAUUCCGAGGGGACCGUCCCCUCGGUAAUGGCGAAUGGGACCCA, the self-cleavage worked out at 0.131.

In the case of GGCCGGCAUGGUCCCAGCCCCCUCGCUGGCGCCGGCUGGGCAACAUUCCAAGGGGACCGUCCCCUCGGUAAUGGCGAAUGGGACCCA, the self-cleavage came to 0.306. For GGCCGGCAUGGUCCCAGCCUCCUCGCUGGCGCCGGCUGGGCAACAUUCCGAGGGGACCGUCCCCUCGGUAAUGGCGUAUGGCACCCA the value was 0.208. Regarding GGCCGGCAUGGUCCCAGCCUCCUCGCUGUCGCCGGCUGGGCAACAGUCCGAGGGGACCGUCCCCUCGGUAAUGGCGAAUGGGACCCA, the self-cleavage was 0.0386. GACCGGCAUGGUCCCAGCCUCCUCGCUGGCGCCGGCUGGGCAGCAUUCCGAGGGGACCGUCCCCUCGGUAAUGGCGAAUGGGACCCA: the self-cleavage came out at 0.0234. In the case of GGCCGGCAUGGUCCCAGCCUCCUCGCUGGCGGCGGCUGGGCAACAUUCCGAGGGGACCGUCCCCUCGGUAAUGGCGAAUGGCACCCA, the self-cleavage stood at 0.0652. To GGCCGGCAUGGUCCCAGCAUCCUCGCUGGCGCCGUCUGGGCAACAUUCCGAGGGGACCGUCCCCUCGGUAAUGGCGAAUGGGACCCA belongs 0.115; to GGCCGGCAUGGUCCCAGCCUCCUCGCUGGCGCCGGCGGGGCAACAUUCCGAGGGGACCUUCCCCUCGGUAAUGGCGAAUGGGACCCA, 0.256; to GGCCGGCAUGGUCACAGCCACCUCGCUGGCGCCGGCUGGGCAACAUUCCGAGGGGACCGUCCCCUCGGUAAUGGCGAAUGGGACCCA, 0. For GGCCGGCAUGGUCCCAGCCUCCUCGCUGGCGCCGGCUGGGCAACAUUCCGAGGGGACCGUCCCCUGGGUAAUGGCAAAUGGGACCCA the value was 1.02.

With GGCCGGCAUGGUCCCAGCCUCUUCGAUGGCGCCGGCUGGGCAACAUUCCGAGGGGACCGUCCCCUCGGUAAUGGCGAAUGGGACCCA, the self-cleavage stood at 0.997. For GGCCGGCAUGGUCCCAGCCUUCUCGCUGGCGCCGGCUGGGCAACAUUCCGAGGGGAUCGUCCCCUCGGUAAUGGCGAAUGGGACCCA the value was 0.18. Turning to GGCCGGCAUGGUCCCAGCCUCCUCGCUGGCGCCGGCUGGGCAGCAUUCCGAGGGGACCGUGCCCUCGGUAAUGGCGAAUGGGACCCA, the self-cleavage is 0.739.

As to GGCCGGCAUGGUCCCAGCCUCGUCGCUGGCGCCGGCUGGGCAACAUUCCGAGGGGACCGUCCCCUCGGUAAUGGAGAAUGGGACCCA, the self-cleavage came to 0.

Turning to GGGCGGCAUGGUCCCAGCCUCCUCGCUGGCGCCGGCUGGGCAACAUUCCGAGGGGACCGUCCCCUCGGUAAUGGCGAAUGAGACCCA, the self-cleavage turned out to be 0.201. For the variant GGCCGGCAUGGUCCCAGCCUCCUCGCUGGCGCCGGCUGGGCAACAUUCCGAGGGCACCGUCCCCUCGGUAAUGGCGAAUGGUACCCA, the self-cleavage worked out at 0.277. For GUCCGGCAUGGUCCAAGCCUCCUCGCUGGCGCCGGCUGGGCAACAUUCCGAGGGGACCGUCCCCUCGGUAAUGGCGAAUGGGACCCA the value was 0.0231. On to GGCCGGCAUGGUCCCAGUCUCCUCGCUGGCGCCGGCUGGGCAACAUGCCGAGGGGACCGUCCCCUCGGUAAUGGCGAAUGGGACCCA, for which the self-cleavage is 0.608. For the variant GGCCGGCAUGGUCCCACCCUCCUCGCUGGCGCCGGCUGGGCAACAUUCCAAGGGGACCGUCCCCUCGGUAAUGGCGAAUGGGACCCA, the self-cleavage was 0.148.

On to GGCCGGCAUGGUCCCAGCCUCCUCGCUGGCGCCGGCUGGGCAGCAUUCCGAGGGGACCGUCCGCUCGGUAAUGGCGAAUGGGACCCA, for which the self-cleavage is 0.604. As to GGCCGGCAUUGUCCCAGCCUCCUCGCUGGCGCCGGCUGGGCAACAUUCCGAGGGGACCGUCCCCUCGGUAAUCGCGAAUGGGACCCA, the self-cleavage was 0.0831.

Take GGCCGGCAUGGUCCCAGCCUCCUCUCUGGCGCCGGCUGGGCAACAUUCCGAGGGGAACGUCCCCUCGGUAAUGGCGAAUGGGACCCA: the self-cleavage came out at 0.192.

Turning to GGCCAGCAUGGUCCCAGCCUCCUCGCUGGCGCCGGCUGGGCAACAUUGCGAGGGGACCGUCCCCUCGGUAAUGGCGAAUGGGACCCA, the self-cleavage stood at 0.101. To GGCCGGCACGGUCCCAGCCUCCGCGCUGGCGCCGGCUGGGCAACAUUCCGAGGGGACCGUCCCCUCGGUAAUGGCGAAUGGGACCCA belongs 0.831; to GGCCGGCAUGGUCCCAGCCUCCUCGCUGGCGCAGGCUGGGCAACAUUCCGAGGGGACCGUCCCCUCGGUUAUGGCGAAUGGGACCCA, 0.458; to UGCCGGCAUGGUCCCAGCCUCCUCGCUGGCGCCGGCUGGGCAACAUUCCGAGGGGACCGUCCCCUCGGUAAUGGCGACUGGGACCCA, 0.293. For GGCCGGCAUGGUCCCAGCCUCCUCGCUGGCGCCGGCUGGGCAACAUUCCGAGGGGACCGUCCUCUCGGUAAUGGCGAAUGGGAACCA, the self-cleavage was determined as 0.76.

As to GGCCGGCAUGGUCCCAGCCUCCUCGCUGGAGCCGGCUGGGCAACAUUCCGAGGGGACCGUCCCAUCGGUAAUGGCGAAUGGGACCCA, the self-cleavage is 0.536. For GGCCGGCAUGGUCCCAGCCUCCUCGCGGGCGCCGGCUGGGCAACAUUCCGAGGGGACCGUCCCCUCGGUAAUGGCGAAUGGGCCCCA the value was 0.831. On to GGCCGGCAUGGUCCCAGCCUCCUCGGUGGCGCCGGCUGGGCCACAUUCCGAGGGGACCGUCCCCUCGGUAAUGGCGAAUGGGACCCA, for which the self-cleavage stood at 0.158. For GGCCGACAUGGUCCCAGCCUCCUCGCUGGCGCCGGCUGGGCAACAUUCCGAGGGGACCGUCCCCUCCGUAAUGGCGAAUGGGACCCA the value was 0.643; for GGCCGGCAUGGUCCCAACCUCCUCGCUGGCGCCGGCUGGGCAACAUUCCGAGGGGACCGUCCCCUCGGUAGUGGCGAAUGGGACCCA, 0.675.
